Reference: US20260166139A1
Several values for one entry are separate records, joined by “and”; a condition that tells them apart may be missing. Equal values may be shown once.

How the values were obtained:
human CTLA4 (human) [1] = target: human CTLA4 (human) (UniProt P16410); assay: ELISA, coat human CTLA4 0.5 ug/ml; antibody 1 ug/ml
human CTLA4 (human) [2] = target: human CTLA4 (human) (UniProt P16410); assay: as above; remark: listed apart in the source
human CTLA4 (human) [3] = target: human CTLA4 (human) (UniProt P16410); assay: ELISA on coated CTLA4, source Human (row of 8D2H2L2)
human CTLA4 (human) [4] = target: human CTLA4 (human) (UniProt P16410); assay: ELISA, coat human CTLA4 0.5 ug/ml; antibody 0 (blank)
[5] = target: monkey CTLA4-hFc (monkey); assay: ELISA on coated CTLA4, source Monkey (row of 8D2H2L2)
[6] = target: monkey CTLA4-hFc (monkey); assay: ELISA on coated CTLA4, source Monkey (row of 8D2H3L3)
CTLA4-mFc [7] = assay: competitive ELISA, competitor B7-2; control run with 8D2
CTLA4-mFc, sequence (chain, as listed by the source limits assumed): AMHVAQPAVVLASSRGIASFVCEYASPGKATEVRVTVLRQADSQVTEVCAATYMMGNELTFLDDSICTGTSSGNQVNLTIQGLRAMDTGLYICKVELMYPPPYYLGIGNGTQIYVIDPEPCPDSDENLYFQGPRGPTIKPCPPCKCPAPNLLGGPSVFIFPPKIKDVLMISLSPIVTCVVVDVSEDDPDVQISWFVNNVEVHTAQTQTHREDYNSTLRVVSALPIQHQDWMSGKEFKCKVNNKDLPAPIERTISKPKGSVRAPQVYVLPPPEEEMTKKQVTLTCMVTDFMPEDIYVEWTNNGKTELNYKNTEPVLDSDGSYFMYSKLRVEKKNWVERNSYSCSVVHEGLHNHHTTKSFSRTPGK

[8] = target: monkey CTLA4-hFc (monkey); assay: ELISA, coat monkey CTLA4-hFc 0.25 ug/ml; antibody 1 ug/ml
[9] = target: monkey CTLA4-hFc (monkey); assay: ELISA, coat monkey CTLA4-hFc 0.25 ug/ml; antibody 0 (blank)
CTLA4-mFc [10] = assay: competitive ELISA, competitor B7-2; control run with 8D2(Re)
CTLA4-mFc [11] = assay: competitive ELISA, competitor B7-2; control run with 8D2H2L2
CTLA4-mFc [12] = assay: competitive ELISA, competitor B7-1; control run with 8D2H2L15
CTLA4-mFc [13] = assay: competitive ELISA, competitor B7-2; control run with 8D2H2L15
CTLA4-mFc [14] = assay: competitive ELISA, competitor B7-2; control run with 8D2H2L17
human CTLA4 (human) [15] = target: human CTLA4 (human) (UniProt P16410); assay: ELISA, coat human CTLA4 0.5 ug/ml; antibody 1:9 (start 1 ug/ml)
human CTLA4 (human) [16] = target: human CTLA4 (human) (UniProt P16410); assay: ELISA, coat human CTLA4 0.5 ug/ml; antibody 1:27 (start 1 ug/ml)
[17] = target: monkey CTLA4-hFc (monkey); assay: ELISA, coat monkey CTLA4-hFc 0.25 ug/ml; antibody 1:27 (start 1 ug/ml)
[18] = target: monkey CTLA4-hFc (monkey); assay: ELISA, coat monkey CTLA4-hFc 0.25 ug/ml; antibody 1:729 (start 1 ug/ml)
CTLA4-mFc [19] = assay: competitive ELISA, CTLA4-mFc coated, competitor B7/2-His; antibody 0 (no antibody)
CTLA4-mFc [20] = assay: competitive ELISA, B7/1-hFc coated (competitor), CTLA4-mFc added; antibody 5 µg/ml
CTLA4-mFc [21] = assay: competitive ELISA, CTLA4-mFc coated, competitor B7/2-His; antibody 0 (no antibody); remark: listed apart in the source
CTLA4-mFc [22] = assay: competitive ELISA, CTLA4-mFc coated, competitor B7/2-His; antibody 3 µg/ml diluted 1:3
CTLA4-mFc [23] = assay: competitive ELISA, CTLA4-mFc coated, competitor B7/2-His; antibody 3 µg/ml diluted 1:9
CTLA4-mFc [24] = assay: competitive ELISA, CTLA4-mFc coated, competitor B7/2-His; antibody 1 µg/ml diluted 1:9
CTLA4-mFc [25] = assay: competitive ELISA, CTLA4-mFc coated, competitor B7/2-His; antibody 1 µg/ml diluted 1:27
CTLA4-mFc [26] = assay: competitive ELISA, CTLA4-mFc coated, competitor B7/2-His; antibody 1.5 µg/ml diluted 1:3
CTLA4-mFc [27] = assay: competitive ELISA, CTLA4-mFc coated, competitor B7/2-His; antibody 1.5 µg/ml diluted 1:9
CTLA4-mFc [28] = assay: competitive ELISA, CTLA4-mFc coated, competitor B7/2-His; antibody 1 µg/ml diluted 1:729
CTLA4-mFc [29] = assay: competitive ELISA, CTLA4-mFc coated, competitor B7/2-His; antibody 1.5 µg/ml diluted 1:243
CTLA4-mFc [30] = assay: competitive ELISA, B7/1-hFc coated (competitor), CTLA4-mFc added; antibody 0 (no antibody)
CTLA4-mFc [31] = assay: competitive ELISA, B7/1-hFc coated (competitor), CTLA4-mFc added; antibody 5 µg/ml diluted 1:3
CTLA4-mFc [32] = assay: competitive ELISA, B7/1-hFc coated (competitor), CTLA4-mFc added; antibody 5 µg/ml diluted 1:9
CTLA4-mFc [33] = assay: competitive ELISA, B7/1-hFc coated (competitor), CTLA4-mFc added; antibody 5 µg/ml diluted 1:3; remark: listed apart in the source
CTLA4-mFc [34] = assay: competitive ELISA, B7/1-hFc coated (competitor), CTLA4-mFc added; antibody 5 µg/ml diluted 1:81
CTLA4-mFc [35] = assay: competitive ELISA, B7/1-hFc coated (competitor), CTLA4-mFc added; antibody 5 µg/ml diluted 1:243
CTLA4-mFc [36] = assay: competition ELISA, coat B7/1-hFc 0.2 ug/ml (competitor), CTLA4-mFc 0.3 ug/ml detected; antibody 0 (no antibody)
CTLA4-mFc [37] = assay: competition ELISA, coat B7/1-hFc 0.2 ug/ml (competitor), CTLA4-mFc 0.3 ug/ml detected; antibody 1:9 (start 3 ug/ml)
CTLA4-mFc [38] = assay: competition ELISA, coat B7/1-hFc 0.2 ug/ml (competitor), CTLA4-mFc 0.3 ug/ml detected; antibody 1:81 (start 3 ug/ml)
CTLA4-mFc [39] = assay: competition ELISA, coat B7/1-hFc 0.2 ug/ml (competitor), CTLA4-mFc 0.3 ug/ml detected; antibody 1:243 (start 3 ug/ml)

control antibody 11.2.1, sequence (VH): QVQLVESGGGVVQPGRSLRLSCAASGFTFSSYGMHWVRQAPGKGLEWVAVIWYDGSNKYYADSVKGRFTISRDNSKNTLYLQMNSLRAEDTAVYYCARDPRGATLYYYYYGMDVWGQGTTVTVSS
control antibody 11.2.1, sequence (VL): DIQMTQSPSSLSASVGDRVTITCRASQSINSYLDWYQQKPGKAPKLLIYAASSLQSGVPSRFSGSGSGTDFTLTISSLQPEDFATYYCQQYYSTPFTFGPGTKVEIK
human CTLA4 (human), sequence (P16410 36-161 limits assumed): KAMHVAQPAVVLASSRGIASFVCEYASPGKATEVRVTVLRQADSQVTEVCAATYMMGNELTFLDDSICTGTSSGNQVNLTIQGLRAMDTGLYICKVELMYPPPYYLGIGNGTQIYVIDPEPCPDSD

control antibody 11.2.1
absorbance at 450 nm (human CTLA4 (human) [1]): 3.58 and 3.55 | absorbance at 450 nm (human CTLA4 (human) [2]): 2.21 and 2.15 | EC50 (human CTLA4 (human) [3]): 0.09 nM | absorbance at 450 nm (human CTLA4 (human) [4]): 0.072 and 0.064 | EC50 [5]: 0.075 nM | EC50 [6]: 0.075 nM | EC50 (CTLA4-mFc [7]): 0.15 nM | absorbance at 450 nm [8]: 1.72 and 1.63 | absorbance at 450 nm [9]: 0.048 and 0.051 | EC50 (CTLA4-mFc [10]): 0.15 nM | EC50 (CTLA4-mFc [11]): 0.172 nM | EC50 (CTLA4-mFc [12]): 2.61 nM | EC50 (CTLA4-mFc [13]): 0.349 nM | EC50 (CTLA4-mFc [14]): 0.349 nM | absorbance at 450 nm (human CTLA4 (human) [15]): 1.29 and 1.41 | absorbance at 450 nm (human CTLA4 (human) [16]): 2.34 and 2.29 | absorbance at 450 nm [17]: 0.625 and 0.665 | absorbance at 450 nm [18]: 0.082 and 0.094 | absorbance at 450 nm (CTLA4-mFc [19]): 1.19 and 1.1 | absorbance at 450 nm (CTLA4-mFc [20]): 0.08 and 0.089 | absorbance at 450 nm (CTLA4-mFc [21]): 0.91 and 0.8 | absorbance at 450 nm (CTLA4-mFc [22]): 0.387 and 0.402 | absorbance at 450 nm (CTLA4-mFc [23]): 0.412 and 0.482 | absorbance at 450 nm (CTLA4-mFc [24]): 0.17 and 0.16 | absorbance at 450 nm (CTLA4-mFc [25]): 0.57 | absorbance at 450 nm (CTLA4-mFc [26]): 0.437 and 0.348 | absorbance at 450 nm (CTLA4-mFc [27]): 0.479 and 0.412 | absorbance at 450 nm (CTLA4-mFc [28]): 0.87 and 0.85 | absorbance at 450 nm (CTLA4-mFc [29]): 0.93 and 0.754 | absorbance at 450 nm (CTLA4-mFc [30]): 1.28 and 1.3 | absorbance at 450 nm (CTLA4-mFc [31]): 0.09 and 0.097 | absorbance at 450 nm (CTLA4-mFc [32]): 0.16 and 0.138 | absorbance at 450 nm (CTLA4-mFc [33]): 0.08 | absorbance at 450 nm (CTLA4-mFc [34]): 1.17 and 1.2 | absorbance at 450 nm (CTLA4-mFc [35]): 1.3 and 1.31 | absorbance at 450 nm (CTLA4-mFc [36]): 0.826 and 0.55 | absorbance at 450 nm (CTLA4-mFc [37]): 0.381 and 0.485 | absorbance at 450 nm (CTLA4-mFc [38]): 0.65 and 0.613 | absorbance at 450 nm (CTLA4-mFc [39]): 0.9 and 0.52
